Data taken from patent US20060229438A1, “Monoclonal antibody derived peptide inhibitors for mycobacterial dna gyrase” (priority 2002, published 2006).
Values after ≈ are worked out from the molar mass of the structure shown.

Assays:
M. smegmatis DNA gyrase = biological target: T1, M. smegmatis DNA gyrase (Mycolicibacterium smegmatis, UniProt Q59556); assay: DNA supercoiling assay, M. smegmatis DNA gyrase; type: biochemical
T1 construct: made in house

[1] = test system: DNA gyrase from ciprofloxacin resistant M. smegmatis mc^2155 strain; type: biochemical
[2] = test system: ciprofloxacin resistant M. smegmatis mc^2155 strain; assay: Ciprofloxacin susceptibility (MIC50) of resistant strain; type: cell-based; conditions: Mycolicibacterium smegmatis
[3] = biological target: T2, M. smegmatis DNA gyrase A subunit (GyrA) (Mycobacterium smegmatis, UniProt P48354 1-842); assay: SPR (BIAcore 2000), M. smegmatis GyrA immobilized on CM5 chip
T2 construct: also called M. smegmatis GyrA
T2 sequence (P48354 whole entry): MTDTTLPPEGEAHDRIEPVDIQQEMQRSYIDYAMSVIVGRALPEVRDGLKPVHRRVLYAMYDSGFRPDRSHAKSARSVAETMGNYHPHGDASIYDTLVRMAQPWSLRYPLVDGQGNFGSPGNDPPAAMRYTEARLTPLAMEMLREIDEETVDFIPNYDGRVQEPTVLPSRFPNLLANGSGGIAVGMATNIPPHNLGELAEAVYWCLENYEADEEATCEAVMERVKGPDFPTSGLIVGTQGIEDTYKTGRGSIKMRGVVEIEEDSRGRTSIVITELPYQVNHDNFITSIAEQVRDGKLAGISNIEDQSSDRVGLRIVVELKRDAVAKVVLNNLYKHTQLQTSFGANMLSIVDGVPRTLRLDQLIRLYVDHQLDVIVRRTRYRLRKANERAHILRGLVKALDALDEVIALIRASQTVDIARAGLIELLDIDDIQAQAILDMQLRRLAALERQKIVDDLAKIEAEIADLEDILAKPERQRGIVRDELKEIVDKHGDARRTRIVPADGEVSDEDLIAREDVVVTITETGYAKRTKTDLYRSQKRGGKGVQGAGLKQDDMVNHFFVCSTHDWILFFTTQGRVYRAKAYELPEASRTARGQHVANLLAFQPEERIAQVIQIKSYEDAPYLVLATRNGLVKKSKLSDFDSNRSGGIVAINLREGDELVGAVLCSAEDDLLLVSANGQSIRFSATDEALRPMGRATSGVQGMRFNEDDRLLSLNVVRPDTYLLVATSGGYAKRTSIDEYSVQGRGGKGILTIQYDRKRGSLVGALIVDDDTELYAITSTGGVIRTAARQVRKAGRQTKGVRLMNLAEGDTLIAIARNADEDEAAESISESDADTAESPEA
Description: Binding parameters were determined by Surface Plasmon Resonance (SPR) spectroscopy using a BIAcore 2000 system, Uppsala, Sweden. The over-expressed and purified M. smegmatis GyrA was immobilized on the CM5 sensor chip at a concentration of 400 resonance units (RU) as per manufacturer's instructions. All measurements were carried out in a continuous flow of HBS buffer (10 mM HEPES, 150 mM NaCl, 5 mM EDTA and 0.05 % Surfactant P-20, pH 7.4) at 10 μl/min. […] The kinetic data were analyzed using the BIA evaluation software (Version 3.0). The surface was regenerated by a pulse of 5 μL of 100 mM NaOH for further experimentation as required.

T1 sequence (Q59556 whole entry): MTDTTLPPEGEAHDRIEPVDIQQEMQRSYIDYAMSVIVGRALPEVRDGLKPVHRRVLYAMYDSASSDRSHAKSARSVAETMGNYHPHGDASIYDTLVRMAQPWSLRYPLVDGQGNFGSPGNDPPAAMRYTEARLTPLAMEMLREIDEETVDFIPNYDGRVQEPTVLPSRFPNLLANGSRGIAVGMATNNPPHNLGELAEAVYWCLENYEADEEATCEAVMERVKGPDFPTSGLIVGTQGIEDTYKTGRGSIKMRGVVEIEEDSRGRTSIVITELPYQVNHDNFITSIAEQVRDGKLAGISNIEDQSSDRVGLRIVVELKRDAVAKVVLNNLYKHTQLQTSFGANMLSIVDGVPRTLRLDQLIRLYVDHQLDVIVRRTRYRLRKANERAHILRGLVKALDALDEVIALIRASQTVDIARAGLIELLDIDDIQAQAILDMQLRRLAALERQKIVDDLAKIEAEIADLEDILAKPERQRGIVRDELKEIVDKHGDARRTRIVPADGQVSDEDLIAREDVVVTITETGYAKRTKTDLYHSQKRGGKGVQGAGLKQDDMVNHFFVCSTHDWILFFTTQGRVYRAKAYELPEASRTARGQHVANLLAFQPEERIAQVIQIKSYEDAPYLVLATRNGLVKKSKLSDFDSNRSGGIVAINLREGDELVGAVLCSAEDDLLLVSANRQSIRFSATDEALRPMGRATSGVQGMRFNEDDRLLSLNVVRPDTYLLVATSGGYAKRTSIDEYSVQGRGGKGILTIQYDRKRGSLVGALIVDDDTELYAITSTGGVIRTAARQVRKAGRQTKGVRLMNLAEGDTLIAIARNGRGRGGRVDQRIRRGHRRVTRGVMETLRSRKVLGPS
T1 sequence (P0C559 2-675, further chain): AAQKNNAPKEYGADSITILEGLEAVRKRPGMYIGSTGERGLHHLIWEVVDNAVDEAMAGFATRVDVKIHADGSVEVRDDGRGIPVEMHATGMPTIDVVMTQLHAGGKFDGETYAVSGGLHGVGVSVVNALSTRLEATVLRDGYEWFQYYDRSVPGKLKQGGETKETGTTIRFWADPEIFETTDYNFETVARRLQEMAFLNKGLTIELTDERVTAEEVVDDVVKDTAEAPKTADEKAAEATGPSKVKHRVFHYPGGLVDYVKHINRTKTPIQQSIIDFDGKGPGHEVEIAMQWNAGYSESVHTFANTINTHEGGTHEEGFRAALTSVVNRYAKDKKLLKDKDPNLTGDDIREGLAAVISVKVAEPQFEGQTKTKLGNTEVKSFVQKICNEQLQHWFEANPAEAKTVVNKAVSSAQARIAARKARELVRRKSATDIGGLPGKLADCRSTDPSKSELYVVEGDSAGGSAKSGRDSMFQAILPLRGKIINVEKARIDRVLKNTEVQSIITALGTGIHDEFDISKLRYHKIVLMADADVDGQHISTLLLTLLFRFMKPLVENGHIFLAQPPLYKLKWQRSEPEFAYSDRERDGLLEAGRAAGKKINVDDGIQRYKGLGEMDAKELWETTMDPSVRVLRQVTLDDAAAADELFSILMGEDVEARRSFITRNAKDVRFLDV

## KASGYSFTVYYIYWVK [CDR:H1]
M. smegmatis DNA gyrase; supercoiling activity
  peptide concentration for complete inhibition of enzyme activity: 5 to 10 µM
[1]
  concentration at which DNA supercoiling activity was inhibited: 10 µM

## O=C(O)c1cn(C2CC2)c2cc(N3CCNCC3)c(F)cc2c1=O [ciprofloxacin, reference compound]
[2]
  MIC50: 64 µg/mL (≈ 193 µM)
M. smegmatis DNA gyrase
  IC50: ~15.1 µM

B1: scFv:GyrA, engineered single chain antibody of MsGyrA:C3 (scFv)
scFv: AQVKLQQSGAELVRPGASVKLSCKASGYSFTVYYIYWVKQRPGQALEWIGEINPSNGGTNFNEKFKTKATLTVDKSTSTVYMQLSSLTSEDSAVYYCTRWGLRRGFAYWGQGTTVTVSSSGGGSGGGGSGGGGSDIELTQSPKSMSMSVGERVTLSCKASENVGTHVSWYQQRPEESPKLLIYGASNRYTGVPDRFTGSGSATDFTLTISNVQAEDLADYHCGQTYSYPFTFGLGTKLEIKRAAAGAPVPYPDPLEPRAA
notes: also called ScFV:GyraA; soluble scFv
[3]
  Kd: 0.000217 µM

B2: scFv:GyrA: engineered single chain antibody fragment of MsGyrA:C3, monovalent 30 kDa polypeptide, Seq. ID #2, encoded by pVNUHMscFv (protein)
scFv: AQVKLQQSGAELVRPGASVKLSCKASGYSFTVYYIYWVKQRPGQALEWIGEINPSNGGTNFNEKFKTKATLTVDKSTSTVYMQLSSLTSEDSAVYYCTRWGLRRGFAYWGQGTTVTVSSSGGGSGGGGSGGGGSDIELTQSPKSMSMSVGERVTLSCKASENVGTHVSWYQQRPEESPKLLIYGASNRYTGVPDRFTGSGSATDFTLTISNVQAEDLADYHCGQTYSYPFTFGLGTKLEIKRAAAGAPVPYPDPLEPRAA
M. smegmatis DNA gyrase
  concentration at which the supercoiling reaction was inhibited: 10 to 20 nM
M. smegmatis DNA gyrase; enzyme preincubated with antibody, relaxed pUC18 DNA
  inhibition of DNA gyrase supercoiling activity: inhibited
[1]
  concentration at which DNA supercoiling activity was inhibited: 0.05 µM
